Kd data for six molecules are collected here from article PMC8755082, “Recognition of G-quadruplex RNA by a crucial RNA methyltransferase component, METTL14”.

The target of data set [1] is T1, METTL3 MTD (MTD3);METTL14 MTD-RGG (MTD14-RGG) (human?;human?, UniProt Q86U44;Q9HCE5 255-580;110-456, |). Kind of data set: EMSA; K+ buffer; EMSA: 2.5 nM RNA, 10 mM potassium (or lithium) phosphate pH 7.5, 25 uM ZnCl2, 10 uM SAM, 0.5 mM DTT, 0.005% Tween 20, 2.5% ficoll, 50 ng/uL yeast tRNA, 4 C, 1 h; GST-RGG: 25 mM Tris-HCl pH 7.5 with 10 mM KCl or LiCl instead of phosphate. The following applies: protein: recombinant;recombinant, tags: Strep-tag II;His6, copies: 1;1, label: 5' FAM.
T1 sequence (Q86U44 255-580, chain 1 of 2): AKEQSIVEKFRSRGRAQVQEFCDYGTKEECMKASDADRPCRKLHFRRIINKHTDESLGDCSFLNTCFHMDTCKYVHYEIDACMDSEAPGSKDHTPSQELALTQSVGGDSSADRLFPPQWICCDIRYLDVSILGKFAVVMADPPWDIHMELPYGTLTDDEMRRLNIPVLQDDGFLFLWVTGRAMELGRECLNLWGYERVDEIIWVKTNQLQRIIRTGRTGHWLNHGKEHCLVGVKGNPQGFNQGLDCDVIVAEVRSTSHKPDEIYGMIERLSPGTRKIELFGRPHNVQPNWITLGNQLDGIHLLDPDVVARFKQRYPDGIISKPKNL
T1 sequence (Q9HCE5 110-456, chain 2 of 2): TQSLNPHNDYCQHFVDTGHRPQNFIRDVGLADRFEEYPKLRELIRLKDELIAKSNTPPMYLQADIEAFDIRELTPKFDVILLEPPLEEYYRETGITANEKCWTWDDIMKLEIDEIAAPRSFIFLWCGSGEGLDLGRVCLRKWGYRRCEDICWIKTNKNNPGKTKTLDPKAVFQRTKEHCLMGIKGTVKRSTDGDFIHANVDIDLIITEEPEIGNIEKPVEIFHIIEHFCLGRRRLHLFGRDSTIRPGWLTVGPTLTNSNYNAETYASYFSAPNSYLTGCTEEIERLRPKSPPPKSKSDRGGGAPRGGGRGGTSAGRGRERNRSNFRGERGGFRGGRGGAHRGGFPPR

The target in data set [2] is METTL3 MTD (MTD3);METTL14 MTD without RGG (MTD14) (human?;human?, UniProt Q86U44;Q9HCE5 255-580;110-413, |). Described as above. The following applies: protein: recombinant;recombinant; tags: Strep-tag II;His6; copies: 1;1; label: 5' FAM; intramolecular parallel G4 in K+; unfolded in Li+.
Chain of METTL3 MTD (MTD3);METTL14 MTD without RGG (MTD14) (Q86U44 255-580, chain 1 of 2): as the sequence (Q86U44 255-580, chain 1 of 2) above
Chain of METTL3 MTD (MTD3);METTL14 MTD without RGG (MTD14) (Q9HCE5 110-413, chain 2 of 2): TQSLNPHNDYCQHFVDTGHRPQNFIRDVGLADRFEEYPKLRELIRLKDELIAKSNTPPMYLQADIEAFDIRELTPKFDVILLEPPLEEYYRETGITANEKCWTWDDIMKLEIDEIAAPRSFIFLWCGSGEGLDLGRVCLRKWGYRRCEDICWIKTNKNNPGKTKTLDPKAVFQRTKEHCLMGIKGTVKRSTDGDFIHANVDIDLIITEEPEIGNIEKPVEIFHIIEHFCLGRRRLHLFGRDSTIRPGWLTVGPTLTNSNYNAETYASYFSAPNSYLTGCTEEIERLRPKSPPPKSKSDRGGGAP
The target in data set [3] is T1, METTL3 MTD (MTD3);METTL14 MTD-RGG …. Nature of the data set: EMSA; Li+ buffer; EMSA: 2.5 nM RNA, 10 mM potassium (or lithium) phosphate pH 7.5, 25 uM ZnCl2, 10 uM SAM, 0.5 mM DTT, 0.005% Tween 20, 2.5% ficoll, 50 ng/uL yeast tRNA, 4 C, 1 h; GST-RGG: 25 mM Tris-HCl pH 7.5 with 10 mM KCl or LiCl instead of phosphate. As to conditions: protein: recombinant;recombinant; tags: Strep-tag II;His6; copies: 1;1; label: 5' FAM; no G4.

B1: G4 RNA1 (structured_RNA)
RNA: UUAGGGUUAGGGUUUUAGACAUUUUUUAGGGUUAGGG
Broadly, the Kd is the free concentration of one partner at which half of the binding sites on the other are occupied at equilibrium, for simple one-to-one binding. Take B1: the Kd is 35 ± 12 nM in data set [1] (intramolecular parallel G4 in K+, unfolded in Li+) and 419 ± 109 nM in data set [2].

B2: G4 RNA3 (structured_RNA)
RNA: UUUUUUUUUUUUUUAGGGUUAGGGAGACAUUAGGGUUAGGG
B2: the Kd in data set [1] (intramolecular G4 in K+, loops 3-8-3) was 29 ± 13 nM.

B3: G4 RNA2 (structured_RNA)
RNA: UUAGGGUUAGGGUUAGGGUUUUAGACAUUUUUUAGGG
Turning to B3, the Kd in data set [1] (intramolecular G4 in K+, loops 3-3-16) amounted to 36 ± 11 nM.

B4: Non-G4 RNA1 (ssRNA)
RNA: UGAGUGUGAGUGUUUUAGACAUUUUUGAGUGUGAGUG
As to B4, the equilibrium dissociation constant (Kd) is 149 ± 11 nM in data set [3] and 209 ± 94 nM in data set [1] (no G4).

B5: G4 RNA4 (structured_RNA)
RNA: UUAGGGUUAGGGUUAGGGUUAGGGAGACAUUUUUUUUUUUU
As to B5, the Kd in data set [1] (intramolecular G4 in K+, loops 3-3-3) came to 35 ± 9 nM.

B6: Non-G4 RNA2 (ssRNA)
RNA: UUUUUUUUUUUUUGAGUGUGAGUGAGACAUGAGUGUGAGUG
With B6, the Kd in data set [1] (no G4) was 309 ± 85 nM.
